The values below come from patent US7655759 (VRIJE UNIVERSITEIT BRUSSEL, dated 2010).

Assay [1] deals with T1, recombinant C fragment of tetanus neurotoxin (Clostridium tetani, UniProt P04958 865-1315).
T1 construct: domain: C fragment
T1 sequence: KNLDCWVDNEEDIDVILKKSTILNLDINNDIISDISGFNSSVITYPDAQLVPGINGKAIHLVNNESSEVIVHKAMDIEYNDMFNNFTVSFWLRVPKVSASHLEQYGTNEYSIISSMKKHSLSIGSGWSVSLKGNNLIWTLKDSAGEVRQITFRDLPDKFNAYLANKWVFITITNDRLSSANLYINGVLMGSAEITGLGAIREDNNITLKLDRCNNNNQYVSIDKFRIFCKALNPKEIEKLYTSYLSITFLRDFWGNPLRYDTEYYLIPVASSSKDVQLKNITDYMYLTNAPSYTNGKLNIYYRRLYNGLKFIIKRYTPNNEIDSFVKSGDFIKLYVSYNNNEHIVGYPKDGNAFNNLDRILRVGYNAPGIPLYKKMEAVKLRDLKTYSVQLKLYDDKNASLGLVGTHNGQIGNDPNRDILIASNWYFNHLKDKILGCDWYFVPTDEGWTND
As to the kind of experiment: ELISA, bacterial extract.

For another assay, the target named is T2, Protein A (UniProt P38507 37-477).
T2 construct: also called Protein A-SEPHAROSE
As to the kind of experiment: Protein A-Sepharose chromatography.

A further assay concerns the target T3, Hen Egg Lysozyme (hen, UniProt P00698 19-147).
T3 construct: also called HEL
Description: inhibition ELISA, binding competed with free antigen.

B1: camel VHH αTT2 (anti-tetanus toxoid) (VHH)
VHH: EVQLQASGGGSVQAGGSLRLSCTAANYAFDSKTVGWFRQVPGKEREGVAGISSGGSTTAYSDSVKGRYTVSLENAKNTVYLLIDNLQPEDTAIYYCAGVSGWRGRQWLLLAETYRFWGQGTQVTVSS
On to B1, for which the binding result in assay [1] was “no binding”.

B2: camel VHH α-LYS3 (anti-lysozyme) (VHH)
VHH: DVQLQASGGGSVQAGGSLRLSCAASGYTIGPYCMGWFRQAPGKEREGVAAINMGGGITYYADSVKGRFTISQDNAKNTVYLLMNSLEPEDTAIYYCAADSTIYASYYECGHGLSTGGYGYDSWGQGTQVTVSS
notes: also called LYS3 VHH; pHEN4-αLYS3
Consider B2, for which the binding result with Protein A is recorded as “no binding”. The same molecule came in with a Ki with Hen Egg Lysozyme of approximately 500 nM.

B3: camel VHH α-LYS2 (anti-lysozyme) (VHH)
VHH: EVQLQASGGGSVQAGQSLRLSCATSGATSSSNCMGWFRQAPGKEREGVAVIDTGRGNTAYADSVQGRLTISLDNAKNTLYLQMNSLKPEDTAMYYCAADTSTWYRGYCGTNPNYFSYWGQGTQVTVSS
notes: also called LYS2 VHH; pHEN4-αLYS2
Turning to B3, the Ki with Hen Egg Lysozyme is approximately 50 nM.
